“And” between values parts separate entries of the source, which are not always exact repeats. Equal entries are not always repeated.

From article PMC3161980 come the findings set out here.

For the assay, the target named is plate-bound HA. Put plainly: ELISA. In general terms: ELISA stands for enzyme-linked immunosorbent assay.

For “NKp30-Fc: long (canonical) ectodomain of NKp30 fused to the Fc portion of human IgG1 (from UniProt O14931 19-135) (Fc fusion)”, the fold stronger ELISA labeling than NKp46-Fc is 1.5 fold and 2 fold.
